# Molecular target: human alpha-thrombin (Homo sapiens, UniProt P00734;P00734 P00734:328-363,P00734:364-622)
# Test: MST; 100 nM aptamer titrated with 0-16580 nM thrombin; 10% human serum, 1x SSC (150 mM NaCl, 15 mM Na3-citrate, pH 7.2), 5 mM KCl, 1 mM CaCl2, 1 mM MgCl2; IR-laser t
binder,measurement,value
TGGTTGGTGTGGTTGGT (ssDNA) [Cy5-labelled thrombin DNA aptamer],binding result,binds
